Read-outs that look alike come from different tables or passages of the source.
How the values were obtained:
Assay in all cases: SPR
[1] = biological target: afucosylated Trastuzumab (TZM‐AF)
[2] = biological target: galactosylated Trastuzumab (TZM‐GT)
[3] = biological target: afucosylated Trastuzumab (TZM‐AF); remark: listed apart in the source
[4] = biological target: galactosylated Trastuzumab (TZM‐GT); remark: listed apart in the source

Kd [1]	SPR signal at 300 nM receptor [1]	Kd [2]	SPR signal at 300 nM receptor [2]	Kd [3]	Kd [4]	Substance
250 nM	40 RU	180 nM	40 RU	200 nM	170 nM	FcγRIIA (from UniProt P12318) (receptor)
180 nM	40 RU	260 nM	40 RU	170 nM	220 nM	FcγRIIB (from UniProt P31994) (receptor)
